{"source": "patent US20150258192A1", "about": "“COMPOSITIONS AND METHODS FOR PREVENTING OR TREATING CHRONIC LUNG ALLOGRAFT DYSFUNCTION (CLAD) AND IDIOPATHIC PULMONARY FIBROSIS (IPF)” (priority 2014, published 2015)", "biological_target": "MAPKAP-K2(h) (human) (UniProt P49137)", "test": "cell-based or functional assay"}
{"substance": "MMI-0100 ([…]; SEQ ID NO: 1) (peptide)", "values": [{"measurement": "IC50 (radiometric kinase activity assay)", "value": 22, "unit": "µM"}]}
